Values quoted from earlier work in patent US8071839B2, “Transgenic mouse comprising a polynucleotide encoding human or humanized C5aR and methods of production and use” (G2 Inflammation Pty Ltd, priority 2003, dated 2011).

T1: C5aR (Homo sapiens, UniProt P21730)
T1 sequence (P21730 1-350): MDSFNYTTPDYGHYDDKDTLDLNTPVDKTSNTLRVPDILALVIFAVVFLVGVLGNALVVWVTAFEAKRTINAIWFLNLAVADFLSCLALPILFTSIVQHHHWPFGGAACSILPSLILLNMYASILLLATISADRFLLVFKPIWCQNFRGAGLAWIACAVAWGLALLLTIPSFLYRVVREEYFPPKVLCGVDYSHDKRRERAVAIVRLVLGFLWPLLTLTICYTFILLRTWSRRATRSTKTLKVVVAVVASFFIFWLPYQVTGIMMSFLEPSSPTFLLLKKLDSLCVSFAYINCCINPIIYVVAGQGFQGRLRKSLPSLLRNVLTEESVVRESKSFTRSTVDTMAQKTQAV

B1: C5a: anaphylatoxin fragment of complement protein C5, natural ligand of C5aR (protein, UniProt P01031 678-751, looked up)
C5a anaphylatoxin: TLQKKIEEIAAKYKHSVVKKCCYDGACVNNDETCEQRAARISLGPRCIKAFTECCVVASQLRANISHKDMQLGR
modifications: C5a anaphylatoxin
notes: anaphylatoxin fragment of complement protein C5, natural ligand of C5aR
B2: murine C5a: mouse C5a, ligand that binds human C5aR (protein, UniProt P06684 679-755, looked up)
C5a anaphylatoxin: NLHLLRQKIEEQAAKYKHSVPKKCCYDGARVNFYETCEERVARVTIGPLCIRAFNECCTIANKIRKESPHKPVQLGR
modifications: C5a anaphylatoxin

What was measured:
C5aR [1] = target: T1, C5aR; conditions: read-out: Kd of C5aR for C5a
C5aR [2] = target: T1, C5aR

Molecule	Kd (C5aR [1])	binding affinity for human C5aR (C5aR [2])
B1	~1 nM	
B2		high affinity
